In the nanobody polyreactivity screen of Harvey et al. (2022):

Experiment: yeast display, Sf9 membrane polyspecificity reagent, FACS + sequencing; frameworks hold sequencing errors
Summary of the method: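 In a synthetic yeast display library (Saccharomyces cerevisiae BJ5465), nanobody expression was induced with galactose for 36–48 hours. FACS gates were set low and high (top ~1%) using anti-HA fluorescence for expression and streptavidin fluorescence for binding of the Sf9 membrane reagent. Each polyreactivity label is drawn from the gate of origin.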

Row | Sequence | polyreactivity (PSR sort gate)
1 | QVQLVESGGGLVQAGGSLRLSCAASGSTLVTYAMGWSRQAPGTERELVAAISYSGGSTYADSVKGRFTISRDNAKNTVYLQMNSLKPEDTAVYYCNSDTSVDVRFDYWGQGTQVTVSS | low polyreactivity
2 | QVQLVESGGGLVQEGGSLRLSCAASGSIFGYYAMGWYRQAPGKERELVAAISRSGGSTYYADSVKGRFTISRDNAKNTVSLQMNSLKPEDTAFYYCAADDYPYGNYYWGKGTQVTVSS | high polyreactivity
3 | QVQLVESGGRLVQAGGSLRLSCAASGFIFGFYAMGWYRQAPGKELELVAANSWSGGSTYYADSVKGRFTISRDKAKNTVFIQMNSLKPVDTAVYYCAAYFVYLDDAVTYDYWGQGTHVTVSS | low polyreactivity
4 | QVQLVDSGGGKVQAGGSLRLSCAASGITFSRNAMGWYRQAPGKEMELVAAITWNGGRTYYADSVKGRFTISRDNAKNTVDLQMNSLKPEDTAVYYCAADSGTRNLASYRYYYWGQGTQGTVSS | high polyreactivity
5 | QVQLVESGGGLVQAGGSLRLSCAASGYIFYDNAMGWYRQAPGKERELVAAISASGGDTYYADSVKGRFTISRDNAKNTVYLQMNSLKPEDTAVYYCAADLITYAMEYWGQGTEVTVSS | low polyreactivity
6 | QVQLVESGGCLVQAGGSLRLSCAASGRMFWSNARGWYRQARGYERELVAAMRNTGSTYYADSVKGRFTISRDNAKNTVYLQMNSLKPEETAVYYCATKPYPYYLYYYWGQGTQVTVSS | high polyreactivity
7 | QVQLVESGGGLVQAGGTLRLSCAASGITFSDYTMGWYRQAPGKERELVDAISTSGGSTYYADSVKGRFTISRDNAKNTVYLQMNSQKPEDTAVYYCAAISAVTLRGYYYWGQRTQVTVSS | high polyreactivity
8 | QVQLVESGVGLVQSGGSLRLSCAASGFIFRWYAKGWYRQAPGKERELVAAISGGGSSTYYADSVKGRFTISRDNEKNTVYLQMNSLKPEDNAVYYCAAYNTYLGYPYYYWGQGTQVTVSS | high polyreactivity
9 | QVQLVESGGGLVQAGGSLRLSCAASGRTFNAYTLGWYTQAPGTERELVAAITSSGGNTYNADSVKGRFTISRDNAKNTVYLQMNSLKPEETAVYYCNTVYLYGTHDYWGQGTQVTVSS | low polyreactivity
10 | QVQLVESGGGLVQAGGSLRLSCAASGSIFYSYAMGWYRQAPGKERELVAAISWDASTYYADSVKGRFTISRDNAKNTVDLQMNSLKPEDTAVYYCNKRWFAPPPYSYVRSYDYWGQGTQVTVSS | low polyreactivity
11 | QVQLVESGGGLVQAGGGLRLSCAACGSIFVYYVMGWYRQAPGKERELVAAINSDGDGTYYADSVKGRFTISRDNAKNTVYLQMNSLKPEDTAVYYCNALNPKSYDYWGQGTQVTVSS | low polyreactivity
12 | QVQLVESGGGLVQAGGSLRLSCAASGFTFGANVMGWYRPAPGKERELVAGITWSGDSTYYADSVKGRFTISRDNAKNTVYLQMNSLKPEDTAVYYCAADVYDGEYILDYDYWGQGTQVTVSS | low polyreactivity
13 | QVQLVESGGGLVQAGGSLRLSCAASGRIFAHFAMGGYRQAPGKEWELVAAIDSGGSTDYADSVKGRFTISRDNAKNTVYLQMNSLKPEDTAVYYCNAERAYLWWYNFDYWGQGTQVTVSS | low polyreactivity
14 | QVQLVESGGGLVQAGGSLRLSCAASGFIFAYNAMGWYRQAPGKERELVAAITGSGTRTYYADSVKGRFTISRDKAKNTVYLQMYSLKPEDTAVYYCAARFPRDTYYYWGQGTQVTVSS | high polyreactivity
15 | QVQLVESGGGLVQAGGSLRLSCAASGSIFAKYTMGWYRQAPGKERELVAAITRSGTSTRYADSVKGRFTISRDNAKNTVYLQMNSLKPEDTAVYYCAASLYSWGQGTQVTVSS | high polyreactivity
16 | QVQLVESGGGIVQAGGSLRLSCAASGRTFQFYAMGWYRQEPGKERELVASITWSPVRTYYADSVKGRFTNSRDNAKNTVYLQMNSLKQEDTAVYSCAIDWDYRLMDYWGQGTQVTVSS | low polyreactivity
17 | QVQLVESGGGLVQAGGSLRLSCAASGSIFQQYAMGWYRQAPGKERELVASINTSGDGTYYADSVKGRFTISRDNAKNSVYLQMNSLKPEDTAVYYCAVEGIFEQLNRMDYWGQGTQVTVSS | low polyreactivity
